Assay results as given in publication PMC314469, “Protein Interaction Networks by Proteome Peptide Scanning” (PLoS Biology, 2004).
Values belong to the binder of their own block, whether it stands above or below them.

Tests used:
Test in all cases: SPOT array
[1] = target: T1, Abp1 SH3 (ABP1_YEAST), P15891
T1 chain: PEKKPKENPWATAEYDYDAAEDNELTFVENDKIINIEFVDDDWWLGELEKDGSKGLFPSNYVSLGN

[2] = target: T2, Boi1 SH3 (BOI1_YEAST), P38041
T2 chain: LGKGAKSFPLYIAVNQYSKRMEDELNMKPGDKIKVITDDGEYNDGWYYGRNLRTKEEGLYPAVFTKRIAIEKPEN

[3] = target: T3, Boi2 SH3 (BOI2_YEAST), P39969
T3 chain: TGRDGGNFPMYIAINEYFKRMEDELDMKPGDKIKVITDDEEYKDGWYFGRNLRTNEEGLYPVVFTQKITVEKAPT

[4] = target: T4, Rvs167 SH3 (RV167_YEAST), P39743
T4 chain: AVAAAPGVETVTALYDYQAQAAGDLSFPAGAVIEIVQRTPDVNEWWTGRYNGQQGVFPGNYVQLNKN

[5] = target: T5, Yfr024 SH3 (LSB3_YEAST), P43603
T5 chain: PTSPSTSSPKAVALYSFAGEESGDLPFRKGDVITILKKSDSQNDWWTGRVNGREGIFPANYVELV

[6] = target: T6, Yhr016c SH3 (YSC84_YEAST), P32793
T6 chain: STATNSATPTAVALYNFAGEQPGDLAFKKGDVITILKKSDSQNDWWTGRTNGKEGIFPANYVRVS

Binder: NLSVRSKRLFPVRP [YAL040C 532-545]
normalised SPOT signal, Boehringer light units (BLU); mean over the file's lines of this peptide [1]: 326

Binder: NKIETLDPALIRP [YDL007W 329-341]
normalised SPOT signal, Boehringer light units (BLU); mean over the file's lines of this peptide [1]: 270

Binder: NKSKFTDMLDPEKP [YBR033W 382-395]
normalised SPOT signal, Boehringer light units (BLU); mean over the file's lines of this peptide [1]: 160

Binder: NQTPAQGPPLRRP [YDR479C 205-217]
normalised SPOT signal, Boehringer light units (BLU); mean over the file's lines of this peptide [1]: 8650

Binder: NLANGLMDTMPNKP [YBL084C 527-540]
normalised SPOT signal, Boehringer light units (BLU); mean over the file's lines of this peptide [1]: 33.5

Binder: NIQTIAMPLTTKP [YIL053W 16-28]
normalised SPOT signal, Boehringer light units (BLU); mean over the file's lines of this peptide [1]: 111

Binder: NKPGWVVYPPPPKP [YML035C 220-233]
normalised SPOT signal, Boehringer light units (BLU); mean over the file's lines of this peptide [1]: 180

Binder: NLLLLDADNFPIKP [YBR015C 261-274]
normalised SPOT signal, Boehringer light units (BLU); mean over the file's lines of this peptide [1]: 169

Binder: NPVVATDPVAAKP [YFL049W 597-609]
normalised SPOT signal, Boehringer light units (BLU); mean over the file's lines of this peptide [1]: 79

Binder: NHIPPFPLRFSFAQ [YDR421W 532-545]
normalised SPOT signal, Boehringer light units (BLU); mean over the file's lines of this peptide [2]: 119 | normalised SPOT signal, Boehringer light units (BLU); mean over the file's lines of this peptide [3]: 35.5 | normalised SPOT signal, Boehringer light units (BLU); mean over the file's lines of this peptide [4]: 106 | normalised SPOT signal, Boehringer light units (BLU); mean over the file's lines of this peptide [5]: 6920 | normalised SPOT signal, Boehringer light units (BLU); mean over the file's lines of this peptide [6]: 2580

Binder: NDDPVIPYKLSKDT [YHR164C 1037-1050]
normalised SPOT signal, Boehringer light units (BLU); mean over the file's lines of this peptide [2]: 92.9 | normalised SPOT signal, Boehringer light units (BLU); mean over the file's lines of this peptide [3]: 44.3 | normalised SPOT signal, Boehringer light units (BLU); mean over the file's lines of this peptide [4]: 54.5 | normalised SPOT signal, Boehringer light units (BLU); mean over the file's lines of this peptide [5]: 198 | normalised SPOT signal, Boehringer light units (BLU); mean over the file's lines of this peptide [6]: 233

Binder: NKTFFLKPPIGRP [YBR182C 407-419]
normalised SPOT signal, Boehringer light units (BLU); mean over the file's lines of this peptide [1]: 7480

Binder: NNNQQKTPKLIKP [YJL087C 616-628]
normalised SPOT signal, Boehringer light units (BLU); mean over the file's lines of this peptide [1]: 48.3

Binder: NPAPLTNTYIPYKP [YML020W 157-170]
normalised SPOT signal, Boehringer light units (BLU); mean over the file's lines of this peptide [1]: 150

Binder: NLKIDSAPAYLKP [YKR011C 56-68]
normalised SPOT signal, Boehringer light units (BLU); mean over the file's lines of this peptide [1]: 112

Binder: NEYPSKPPKVKFPA [YDL064W 66-79]
normalised SPOT signal, Boehringer light units (BLU); mean over the file's lines of this peptide [2]: 66.8 | normalised SPOT signal, Boehringer light units (BLU); mean over the file's lines of this peptide [3]: 54.4 | normalised SPOT signal, Boehringer light units (BLU); mean over the file's lines of this peptide [4]: 60.2 | normalised SPOT signal, Boehringer light units (BLU); mean over the file's lines of this peptide [5]: 415 | normalised SPOT signal, Boehringer light units (BLU); mean over the file's lines of this peptide [6]: 54.8

Binder: NAPPYVPQRSKQPD [YBR114W 165-178]
normalised SPOT signal, Boehringer light units (BLU); mean over the file's lines of this peptide [2]: 558 | normalised SPOT signal, Boehringer light units (BLU); mean over the file's lines of this peptide [3]: 200 | normalised SPOT signal, Boehringer light units (BLU); mean over the file's lines of this peptide [4]: 14300 | normalised SPOT signal, Boehringer light units (BLU); mean over the file's lines of this peptide [5]: 11800 | normalised SPOT signal, Boehringer light units (BLU); mean over the file's lines of this peptide [6]: 8020

Binder: NNSGTGFPELYKP [YDR527W 27-39]
normalised SPOT signal, Boehringer light units (BLU); mean over the file's lines of this peptide [1]: 24.7

Binder: NANPFLPNKHPVTQ [YGR076C 38-51]
normalised SPOT signal, Boehringer light units (BLU); mean over the file's lines of this peptide [2]: 28.5 | normalised SPOT signal, Boehringer light units (BLU); mean over the file's lines of this peptide [3]: 54 | normalised SPOT signal, Boehringer light units (BLU); mean over the file's lines of this peptide [4]: 81.9 | normalised SPOT signal, Boehringer light units (BLU); mean over the file's lines of this peptide [5]: 1430 | normalised SPOT signal, Boehringer light units (BLU); mean over the file's lines of this peptide [6]: 352

Binder: NPIEHVKPIHIKP [YLR201C 20-32]
normalised SPOT signal, Boehringer light units (BLU); mean over the file's lines of this peptide [1]: 66.7

Binder: NISIDYKPSRNKP [YKL126W 329-341]
normalised SPOT signal, Boehringer light units (BLU); mean over the file's lines of this peptide [1]: 181

Binder: NKLLPPHPFADKP [YGL143C 142-154]
normalised SPOT signal, Boehringer light units (BLU); mean over the file's lines of this peptide [1]: 69.9

Binder: NLVNIWKPDFERP [YJR140C 1438-1450]
normalised SPOT signal, Boehringer light units (BLU); mean over the file's lines of this peptide [1]: 130

Binder: NKRDKKKKKYPRKP [YDR485C 329-342]
normalised SPOT signal, Boehringer light units (BLU); mean over the file's lines of this peptide [1]: 0

Binder: NEGPEYPTKIEKNQ [YKL101W 777-790]
normalised SPOT signal, Boehringer light units (BLU); mean over the file's lines of this peptide [2]: 125 | normalised SPOT signal, Boehringer light units (BLU); mean over the file's lines of this peptide [3]: 33.6 | normalised SPOT signal, Boehringer light units (BLU); mean over the file's lines of this peptide [4]: 20.8 | normalised SPOT signal, Boehringer light units (BLU); mean over the file's lines of this peptide [5]: 127 | normalised SPOT signal, Boehringer light units (BLU); mean over the file's lines of this peptide [6]: 109

Binder: NNPSNSIPKIEKP [YCL014W 1345-1357]
normalised SPOT signal, Boehringer light units (BLU); mean over the file's lines of this peptide [1]: 108

More lines, now with the values ahead:

normalised SPOT signal, Boehringer light units (BLU); mean over the file's lines of this peptide [1]: 1040
Binder: NNPPQMVPKGVRP [YOR188W 1010-1022]

normalised SPOT signal, Boehringer light units (BLU); mean over the file's lines of this peptide [1]: 8720
Binder: NNNNLDKPKVKRP [YOL148C 556-568]

normalised SPOT signal, Boehringer light units (BLU); mean over the file's lines of this peptide [2]: 76.1 | normalised SPOT signal, Boehringer light units (BLU); mean over the file's lines of this peptide [3]: 34.2 | normalised SPOT signal, Boehringer light units (BLU); mean over the file's lines of this peptide [4]: 48.6 | normalised SPOT signal, Boehringer light units (BLU); mean over the file's lines of this peptide [5]: 2530 | normalised SPOT signal, Boehringer light units (BLU); mean over the file's lines of this peptide [6]: 2090
Binder: NEVPTTPVRLILGQ [YOR195W 2-15]

normalised SPOT signal, Boehringer light units (BLU); mean over the file's lines of this peptide [1]: 179
Binder: NKIKETLPREKKP [YMR255W 67-79]

normalised SPOT signal, Boehringer light units (BLU); mean over the file's lines of this peptide [1]: 66.1
Binder: NPELEKLSVHPLKP [YNL106C 1166-1179]

normalised SPOT signal, Boehringer light units (BLU); mean over the file's lines of this peptide [1]: 108
Binder: NITVDYKPSKNKP [YMR104C 326-338]

normalised SPOT signal, Boehringer light units (BLU); mean over the file's lines of this peptide [1]: 235
Binder: NLRGRIEFQPPLKP [YMR020W 267-280]

normalised SPOT signal, Boehringer light units (BLU); mean over the file's lines of this peptide [1]: 342
Binder: NPSNKSIPFWKRP [YNL034W 381-393]

normalised SPOT signal, Boehringer light units (BLU); mean over the file's lines of this peptide [1]: 45.9
Binder: NLGDIVTPTIQRP [YPL070W 456-468]

normalised SPOT signal, Boehringer light units (BLU); mean over the file's lines of this peptide [2]: 24.7 | normalised SPOT signal, Boehringer light units (BLU); mean over the file's lines of this peptide [3]: 5.7 | normalised SPOT signal, Boehringer light units (BLU); mean over the file's lines of this peptide [4]: 9.7 | normalised SPOT signal, Boehringer light units (BLU); mean over the file's lines of this peptide [5]: 207 | normalised SPOT signal, Boehringer light units (BLU); mean over the file's lines of this peptide [6]: 225
Binder: NINPKQPPKTSGEK [YMR179W 373-386]

normalised SPOT signal, Boehringer light units (BLU); mean over the file's lines of this peptide [2]: 37.5 | normalised SPOT signal, Boehringer light units (BLU); mean over the file's lines of this peptide [3]: 93.6 | normalised SPOT signal, Boehringer light units (BLU); mean over the file's lines of this peptide [4]: 0 | normalised SPOT signal, Boehringer light units (BLU); mean over the file's lines of this peptide [5]: 84.4 | normalised SPOT signal, Boehringer light units (BLU); mean over the file's lines of this peptide [6]: 77.6
Binder: NIPPNSPGKLQLNT [YNR017W 123-136]

normalised SPOT signal, Boehringer light units (BLU); mean over the file's lines of this peptide [1]: 169
Binder: NLVQSIDPNHSKP [YPL075W 339-351]

normalised SPOT signal, Boehringer light units (BLU); mean over the file's lines of this peptide [1]: 610
Binder: NLTTTSKPSLPEKP [YPR171W 329-342]

normalised SPOT signal, Boehringer light units (BLU); mean over the file's lines of this peptide [1]: 140
Binder: NMPFTLNQSHPFKP [YMR067C 315-328]
